Columns and labels:
[1] = biological target: human GPVI-Fc (isoform and haplotype not stated) used in the competition ELISA (human) (UniProt Q9HCN6); assay: Competition ELISA (MSD): human GPVI-Fc preincubated with Fab, then on coated rat-tail collagen (competitor)
[2] = biological target: human GPVI on the cell surface of human platelets (human) (UniProt Q9HCN6); assay: FACS on washed human platelets from PRP (one exemplary donor), PE-conjugated detection antibody, median fluorescence
[3] = biological target: human GPVI-Fc (isoform and haplotype not stated) used in the competition ELISA (human) (UniProt Q9HCN6); assay: Competition ELISA (MSD): human GPVI-Fc preincubated with Fab, then on coated CRP-XL (competitor)
[4] = biological target: human GPVI-Fc (isoform and haplotype not stated) used in the competition ELISA (human) (UniProt Q9HCN6); assay: Competition ELISA (MSD): human GPVI-Fc preincubated with Fab, then on coated VitroCol (competitor)
[5] = biological target: human GPVI on the cell surface of human platelets (human) (UniProt Q9HCN6); assay: FACS on washed human platelets from PRP, Fab directly conjugated with PE, average + SD of 3 donors, signal given as GPVI molecules per cell

Binder	IC50 [1]	Maximum inhibition at 200 nM Fab [%] [1]	EC50 (read off the curve) [2]	IC50 [3]	Maximum inhibition at 200 nM Fab [%] [3]	IC50 [4]	Maximum inhibition at 200 nM Fab [%] [4]	EC50 (read off the curve) [5]
Reference Control Antibody RefFab #1 (humanized GPVI antibody of WO2011073954A2, SANOFI) (Fab, V domains shown) VH: EVQLLESGPGLVAPSGSLSITCTVSGFSLTGYGVNWVRQPPGKGLEWLGMIWGDGSTDYQSTLKSRLSISKDNSKSQVFLKMNSLRTDDTARYYCARDLPMDYWGLGTSVTVSS VL: DIQMTQSPSSLSASVGGRVTITCKASQDINKYIAWYQHKPGKGPSLLIHYTSTLQPGVPSRFSGSGSGRDYSFSISNLQPEDIATYYCLQYANLLTFGGGTKLEIKR	7 nM	99%	1 µg/mL	10.6 nM	100%	5.8 nM	100%	–
Fab #1 comprising a modified heavy chain constant region (Fab, V domains shown) VH: QVQLVQSGAEVKKPGASVKVSCKASGYTFTSHYMHWVRQAPGQGLEWMGLIEPSEGETEYAQRFQGRVTMTRDTSTSTVYMELSSLRSEDTAVYYCARDSSRSYPLGFDIWGQGTLVTVSS VL: QSVLTQPPSVSAAPGQKVTISCSGSSSNIGNNYVSWYQQLPGTAPKLLIYDNNKRPSGIPDRFSGSKSGTSATLGITGLQTEDEADYYCAAWDFRSSRWVFGGGTKLTVLG	11 nM	89%	0.2 µg/mL	10.9 nM	63%	8.2 nM	79%	–
Fab #4 comprising a modified heavy chain constant region (Fab, V domains shown) VH: QVQLVQSGAEVKKPGASVKVSCKASGGAFTSSYMHWVRQAPGQGLEWMGIIEPTGASTLYAQRFQGRVTMTRDTSTSTVYMELSSLRSEDTAVYYCARTGIALPLGFDLWGQGTLVTVSS VL: QSVLTQPPSVSAAPGQKVTISCSGSSSNIGNNYVSWYQQLPGTAPKLLIYDNNKRPSGIPDRFSGSKSGTSATLGITGLQTEDEADYYCAAWSTRFRWVFGGGTKLTVLG	8.2 nM	86%	0.5 µg/mL	13.2 nM	47%	10.6 nM	82%	0.6 µg/mL

Stronger by IC50 [1], values ahead:

IC50 [1]	Maximum inhibition at 200 nM Fab [%] [1]	EC50 (read off the curve) [2]	IC50 [3]	Maximum inhibition at 200 nM Fab [%] [3]	IC50 [4]	Maximum inhibition at 200 nM Fab [%] [4]	EC50 (read off the curve) [5]	Binder
6.3 nM	100%	0.4 µg/mL	8.3 nM	100%	5.4 nM	100%	–	Fab #2 comprising a modified heavy chain constant region (Fab, V domains shown) VH: QVQLVESGGGLVKPGGSLRLSCAASGFSFSDHYMSWIRQAPGKGLEWVSSVGSEGKFIDYAASVKGRFTISRDNAKNSLYLQMNSLRAEDTAVYYCARHYREFRWHYYYFDYWGQGTLVTVSS VL: QSVLTQPPSVSGAPGQRVTISCTGSSSNIGAGYDVHWYQQLPGTAPKLLIYGNSNRPSGVPDRFSGSKSGTSASLAITGLQAEDEADYYCQSHDLGAHVWVFGGGTKLTVLG
6.3 nM	99%	0.4 µg/mL	8.7 nM	100%	5.6 nM	99%	0.5 µg/mL	Fab #3 comprising a modified heavy chain constant region (Fab, V domains shown) VH: QVQLVESGGGLVKPGGSLRLSCAASGFSFGDYYVSWIRQAPGKGLEWVSAIGGSGSAVQYAESVKGRFTISRDNAKNSLYLQMNSLRAEDTAVYYCARHYREFRWHYYYFDYWGQGTLVTVSS VL: QSVLTQPPSVSGAPGQRVTISCTGSSSNIGAGYDVHWYQQLPGTAPKLLIYGNSNRPSGVPDRFSGSKSGTSASLAITGLQAEDEADYYCQSHDLGAHVWVFGGGTKLTVLG

From patent publication US20210214435A1
